Results reported in IntAct's records for PubMed 20389281.

Legend:
snai1_human SNAI1 [1] = molecular target: snai1_human SNAI1 (UniProt O95863)
snai1_human SNAI1 [2] = molecular target: snai1_human SNAI1 (UniProt O95863); remark: listed apart in the source

Sequence of snai1_human SNAI1 (O95863 whole entry): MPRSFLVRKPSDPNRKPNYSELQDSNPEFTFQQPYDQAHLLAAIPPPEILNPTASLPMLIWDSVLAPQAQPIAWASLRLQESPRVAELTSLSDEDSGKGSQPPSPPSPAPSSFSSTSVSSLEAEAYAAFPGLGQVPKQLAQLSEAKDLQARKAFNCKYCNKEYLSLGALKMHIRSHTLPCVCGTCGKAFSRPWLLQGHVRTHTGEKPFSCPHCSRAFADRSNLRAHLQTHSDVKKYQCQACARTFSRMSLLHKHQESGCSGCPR

Substance | effect of a mutation on the interaction (snai1_human SNAI1 [1]) | effect of a mutation on the interaction (snai1_human SNAI1 [2])
Lysine-specific histone demethylase 1A (Homo sapiens) (from UniProt O60341) D375A | disrupting interaction | 
Lysine-specific histone demethylase 1A (Homo sapiens) (from UniProt O60341) D555A |  | disrupting interaction
Lysine-specific histone demethylase 1A (Homo sapiens) (from UniProt O60341) E379A | disrupting interaction | 

Now from value to substance:

effect of a mutation on the interaction (snai1_human SNAI1 [1]) | effect of a mutation on the interaction (snai1_human SNAI1 [2]) | Substance
 | disrupting interaction | Lysine-specific histone demethylase 1A (Homo sapiens) (from UniProt O60341) D553A
 | disrupting interaction | Lysine-specific histone demethylase 1A (Homo sapiens) (from UniProt O60341) D556A
